# Results published in the DeepSol protein solubility set.
# Experiment: soluble on expression in E. coli; label from the status in PepcDB or PDB records
row,Sequence,soluble on expression in E. coli
1,MNTDKQVYPLYYEAKNDKVRKRLGIKGGFYWAEAKKLSIAISRGAVAIDDAGYDEDDFKKPVRVNLPVVDDLPPEGVFDTEFCNRYEKGGEDGITMVFIASSPSVQDKPASTDNTNVNGEDMTEIEENMLLPVSGQELPIRWLAQHGSEKPVTHVSRDELQALHIARDEELPAVTALAVSHKTSLLDPLEIRDLHKLVRDTDRVFPNPGNSSLGLMTAFFEAYMDADYTDRGLLTKEWMKGNRVSRITRTASGANAGGGNLTDRGEGFVHDLTSLARDVATGVLARSMDVDIYNLHPAHAKRVEEIIAENKPPFSVFRDKFITMPGGMDYSRAIVVASVKEAPIGIEVIPAHVTEYLNKVLTETDHANPDPEIVDIACGRSSAPMPQRVTEEGKQDDEEKTQPSGAMADEQATAETMEPDATEHHQNTQPLDAQSQVNSVDEKYQELRAELHEARKNIPPKNPVDADKLLAALR,not soluble
2,MGSDKIHHHHHHMMRKYSDKKNAQTQNYYKDRFYHAPHTVKSDVNESVFKEDFEVLKTQVEILNSFVELDFWVIEIKKEDNVKTLQMLKTLGYLSFTEASAIDFIADKNGFEVFYQLLNLEKKLRVRIKTFVGVKERLQSVAHVFKGANWSEREIYDMFGIFIINHPNLKRILMPDDWFGHPLLKTYPLKGDEFARWYEIDKIFGKEYREVVGEEQRDSGFADDKDTLNFARLYHEVPKGGQKKEISFKQEYQEDEGVAFVKKVKRDEAKILEKRR,not soluble
3,MSPGPQSGGQERGSMERKMVELEDTGLTFATEVDLERLQALAAEWLQVIGEDPGREGLLKTPERVAKAWAFLTRGYRQRLEEVVGGAVFPAEGSEMVVVKGVEFYSMCEHHLLPFFGKVHIGYIPDGKILGLSKFARIVDMFARRLQVQERLAVQIAEAIQEVLEPQGVGVVVEGVHLCMMMRGVEKQHSRTVTSAMLGVFRENQKTREEFLSHLRDGTA,soluble
4,QETEDPACCSPIVPRNEWKALASECAQHLSLPLRYVVVSHTAGSSCNTPASCQQQARNVQHYHMKTLGWCDVGYNFLIGEDGLVYEGRGWNFTGAHSGHLWNPMSIGISFMGNYMDRVPTPQAIRAAQGLLACGVAQGALRSNYVLKGHRDVQRTLSPGNQLYHLIQNWPHYRSP,soluble
5,MAHHHHHHMQPRHFHVCNFLLTCSCERGHPRVRCLRFAALRFAKPHFALLCRTSLCFFFATPTRAELATDGLKGRIYEVNLADLNNDEDQAHKKIKLCCDHIINKDCYTDFCGLSITRDKLCSLIRKGYTLIEGYTDVKTIDNYQLRMFCIAFTKKRPNQTKTTCYAQTSQIKKIRKKMVDIMNAEASKVMLKDLVKKFIPESIGKEVEKQCKKIYPLQNVLIRKVKILKRPKLDISKLMELHTDSKEDAGKNVKSLPESKEATNILSAELKH,soluble
6,MIYIIGSGIAGLSAGVALRRAGKKVTLISKRIDGGSTPIAKGGVAASVGSDDSPELHAQDTIRVGDGLCDVKTVNYVTSEAKNVIETFESWGFEFEEDLRLEGGHTKRRVLHRTDETGREIFNFLLKLAREEGIPIIEDRLVEIRVKDGKVTGFVTEKRGLVEDVDKLVLATGGYSYLYEYSSTQSTNIGDGMAIAFKAGTILADMEFVQFHPTVTSLDGEVFLLTETLRGEGAQIINENGERFLFNYDKRGELAPRDILSRAIYIEMLKGHKVFIDLSKIEDFERKFPVVAKYLARHGHNYKVKIPIFPAAHFVDGGIRVNIRGESNIVNLYAIGEVSDSGLHGANRLASNSLLEGLVFGINLPRYVDSSWEGISTDDGIVHSVRISGNKTLSLKEIRRINWENVGIIRNEEKLVKAINTYSSSTQNEAIISYLTALAAEIRKESRGNHFREDYPYKDPNWEKRIYFKLVV,soluble
7,MSLKPEKPSDTELVFISNAETIRDYLLRLSVDELKLLAKYILQNVYIVFVQTDDFASSFRLFNVLNSRGLPLSNADLLKNALFESASTHNKKSEQIESAWSQIEDMVGVRRLDKFLTLHKLSEKKDRDRVLQKGFEAFIENLQQQFDGDAIAMSLMLVNSAKNYTKILENDFEHPSIRRKIASLSNLGVDEWIPPVMAFMNRMARTEDFNLDDFSQFITAFEKVYMHGWLKKQIKSQREMVCYSALVAINNDMPFDSVINQINQHADNSGFIAALDEDLYEPRPNQVNLIKAILLRLDMEQQDESVIKTYTGRITIEHILPQALVNEYWINRFQPQEHVYWLHKIGNLTLISGSKNSEAQHYDFIKKKSIYEKLNSKSSFDLTKDVCNSSEWGLAELKMRHEKMKTQLKKLWLVEGHHHHHH,not soluble
8,MDSWYPSKELIEACLKKGFHVIAMLKTNRILYPKGIAVQAKQFARYLEPRDTRLVTVGNERYRVYRYEGALNGLDDAVVLLTWKADQPMTPEHLHGVLSTDRELSDEDILRYYAQRWSIECFFRQVKDQLKLDGYRVRHIRAVKRYWVTVLLACVYSIAESQQDISAGLNLLRTRKGHSLIEFIYDAAKQDIPIDVVKKQLHVA,not soluble
9,MEYRLFGQVTRALMDASQAPADDIATRIDALDWNRKVWSALATDCALPENQLPMELRASIISLSLWVGRHSSAVMRKEEDFEPLIEINRMIMQGLAGRADAA,not soluble
10,MGSDKIHHHHHHMNLRVLGKILLDEMRNGDVAIVEYSSSSPIHRLVWGEIILKYVDRYEFVIDDFFGIGDVMFRTYLRRISSPDEYTKIMEKTKNIKAIKIGPGKISYASKVEELPLTYNLSEFIKLYYPIIRDILAKSSKRVFFITLGLSQYLYLGEAKALETILLSRSVLPIEDWTSIYFLNTDVAPEKAVAALEEISPIVIQVRNNEILVKKI,not soluble
11,MGSDKIHHHHHHMLTHSTNPRGGVVHAMQLSEALTALGHAVTLHAPDPKGTGFFRSPACGAACFPVPPALADMTALVEQRIADYIGHFEQADNRDFDVFHAHDGISGNALATLKSRGLIPSFVRTIHHIDQFEDPRLMVLQDRSIQRADAFLAVSAAWQAILRDSYGVDAKVVGNGVDNRRFSPAWSGEQTALRDRIGLHAGAVFLSIGGIEARKNTLGILDAFRQLRAVKPDAQLVIAGGVSLLDHRDYQEEFQSHLRALRDDAAAVHIIGAVSDDDMPNLYRLADALVFPSLKEGFGLVVLEAMASGVPAIVPSIAPFIDYLSGDDALWCDPLHSASIAEAMALALVPEIRERIIPRGLEVASRFTWRRVAEAHLSTYATLKEAAHA,not soluble
12,MGSDKIHHHHHHMDYTPRLQPARLIKRYKRFLADVVTPEGETLTLHCANTGAMTGCATPGDTVWYSTSDNPKRKYPQSWELTETQQNHWICVNTLRANTLLYEALLENRIEELAGYSDIKTEVKYGTENSRIDLLLQAPDRIDCYIEVKSVTLLQHECGYFPDAVTLRGQKHLRELQQMVSNGKRAVLFFAVLHSGIQQVSPARHIDSRYAELFIEAQQAGVEILCYGSTLCPDGIKLTNKLPLLG,not soluble
13,MRNFDLSPLYRSAIGFDRLFNHLENNQSQSNGGYPPYNVELVDENHYRIAIAVAGFAESELEITAQDNLLVVKGAHADEQKERTYLYQGIAERNFERKFQLAENIHVRGANLVNGLLYIDLERVIPEAKKPRRIEIN,not soluble
14,GSMLHGLKQRLEALHHPGELEGSPQNLHQLLGVSIEQSVPQAQTMLVERHLASLTGDEARLLAALSDGSAFALLTLYSGSRFSRGEVLYRYSNAGRAAGIQCNDFIALYLNHLFAQGLVIASDFTESLRTDYELCEGDSDFRKAQAELQIHLPKLSIRRETLRISPLGRQLWTLMTTPADIEEGH,soluble
15,MKTSETTRPTLSSLPVGKRAEEGTPHNLFTVIGLDDSPSPYLSPSVKALIDQGCVFSGGVRHHDIVAPLLPAGAKWIDITVPLDQVFARYAGHPHIIVFASGDPIFFGFANTIRRRLPDAEIRLYPSFNSLQTLAHRLVMPYDDMRTISLTGRPWHGFDRALIERTPKMGILTDREHTPATIASRMLDYGYNDYTMYIGEHLGHPTKELIRRMTLEEAAAETFEYPNCLILTTGDGLQSVNGGILSPRFFGIPDEAFELLDGRARMITKAPIRLLTLSALELNRRTSFWDIGFCTGSVSIEARLQFPHLHVTSFEIRPEGKRLMEINSRRFGTPGITTVIGDFLETDTAIYPCPDAVFIGGHGGRLKEIISRVRHKLLPGARIVFNSVSEESKTHFIEAANESGLCFLGGTRVAINEYNPIEILVASAPDSPYL,not soluble
16,YEFKKRNNIPMFFGIGNVTELFDVDSNGVNASIAAIGQEIGGNILFTPEASKKCKFSIKELKTASKMLFLAKKRNSLPKDVGYDLINYKDKKFDEEFELEDVKIIEAFENEKQLLDRGSFKIRVDRKNKEINATYYVHNQPKLIIRGNDPKKIYETALRENLITKMDHAAYFGKELRNAELALKLGKKYNQDFELFYNEFWN,not soluble
17,MFSPLRRLTTTGLQLQKLQKLQKLQQFQPARAVHLTVFQQKGHSKWQNIKAVKGKNDLIRSKATNFLLRKVRGAVSRGGFDMKLNRELADLESEFRAQGLPLDTLKNFLQKMKDKPEVEYSFDIIGPSGIFLIVTAETSNKKAFENDLRKYFNKLGGFRLAADGGVRSWFEEKGVVHVDTKKGGKILNIEEMEEIGLEFDAEEVLLIEEDSTKKFELICDAKSLQTLENGLGKGGFSILQSEIEFRPVHPIDCPEAEEPKVQKLYEMLQEDEQVRQIFDNITPDE,not soluble
18,MGSDKIHHHHHHMLEQFHIHADLKQQLSTIHEKNKQEAGENAHLIGTKIYKASDNSIIEDAITALLLGKNILLKGPTGSGKTVLAETLSSLFQKPMHSINCSVDLDVEGILGYNTLQTKDGASEVAFVNGPLMKAMKNGHFLYIDEINMAKPETLPLLHGALDYRKMITNPFTQEVVYGDDEYRVIAAINEGYVGTSELNEALKNRFVIIEVPYIQGDTLKELLLAESKLNDVTTIEKFVAFASDLMPLARDGRVSEEAASIRGIIDACDLGVYIPVMRAIERSIIAKLNDETEQMTVRELAESYFFEG,not soluble
19,RYNGLTLRSVFQPIFDKQHQVVGAEALVRIFTQHHTQIRPDLFFHSETFADDDKLNVERLSRAIHIRNFSLSPYRDTRLFLNVLPVAGEQFAYCDISSTLLATRLAELNIPHHRVVMELVEIESGDEGMLQMATEKLVANGFQIAIDDFGCKASTPERVAMLRPNIIKLDRQLLLDFMAGDCCGLLAGVQLAQKTGAHTVVEGIETAEQLAAMQKLDINMYQGYYLALPEGIAQTAKVANAN,not soluble
20,MSVRLPLLLRQLGRQQLPSGPACRLRELCRSGSRSSSSGGGDPEGLRGRRLQDGQTFSSHGPGNPEAPGMDSIVRDVIHNSKEVLSLLQEKNPAFKPVLVVIQAGDDNLMKDMNQNLAKEAGLDITHICLPPDSGEDEIIDEILKINEDPRVHGLTLQISEDSLSNKVLNALKPEKDVDGVTDINLGKLVRGDAPECFVSPLAKAAVELVEKSGITLDGKKVLVVGAHGPLEAALQWLFQRKGFMTMSCPWAPPQLPDKLREADIVVLGSPKPEEIPAVWIPSGTTILNCFHDFLSGKLSGGSPGVPVDKLIAEESVSLLAAALRIQNMVSSGRRWLREQQHRRWRLHCLKLQPLSPVPSDIEISRGQTPKAVDVLAKEIGLLADEIEIYGKSKAKVQLSLLERLKDQTDGKYVLVAGITPTPLGEGKSTVTIGLVQALTAHLKVNSFACLRQPSQGPTFGVKGGAAGGGYAQVIPMEEFNLHLTGDIHAITAANNLLAAAIDTRILHESTQTDKALYNRLVPLVNGVREFSEIQLSRLKKLGIHKTDPSTLTEEEVRKFARLNIDPATITWQRVLDTNDRFLRKITIGQGSTEKGYSRQAQFDIAVASEIMAVLALTDSLTDMKERLGRMVVASDKDGQPVTAEDLGVTSALTVLMKDAIKPNLMQTLEGTPVFVHPGPFANIAHANSSVLTDKIALKFVGEEGFVVTEAGFGADIGMEKFFNIKCRASGLVPNVVVLVATVRALKMHVGGPSVTAGVPLKKEYTEENIQMVADGCCNLQKQIQIAQLFGVPVVVALNVFKTDTRAEIDLVCELAKRAGAFDAVPCYHWSAGGKGSVDLARAVREAANKRSRFQFLYDVQLPIVEKIRVIAQTVYGAKDIELSPEAQSKIDRYTQQGFGNLPICMAKTHLSLSHEPDKKGVPRDFTLPISDVRASIGAGFIYPLVGTMSTMPGLPTRPCFYDIDLDTETEQVKGLF,soluble
